In US20240368239A1, “Novel bispecific protein and use thereof” (SL METAGEN, priority 2020, published 2024):
Entries after “also recorded” stand apart in the source; their conditions may differ.

Tests used:
[1] = system: C57BL/6J male mice on CD-HFD; test: Choline-deficient high-fat diet (CD-HFD) metabolic syndrome model; assay type: in vivo
Source text: To this end, in particular, with respect to experimental animals induced with fatty liver and steatohepatitis through high-fat diet, as shown in FIG. 13a and Table 8, the present inventors performed a choline-deficient high-fat diet ([…]) for 12 weeks using 8-week-old C57BL/6J male mice, and then 20 nmol/kg of MG12-5, MG12-8, and each of 10 nmol/kg of GLP-1 and GLP-2 combination (combo) were administrated twice subcutaneously twice to experimental animals respectively, along with a CD-HFD diet for 4 weeks, and various serological and histological analyses were performed.
First, the present inventors recorded changes in body weight and food intake of experimental animals during the experiment period.
As described above, after 16 weeks on CD-HFD, mice treated with drugs (MG12-5, MG12-8, and GLP-1 and GLP-2 combo) twice a week for 4 weeks, after food restriction 12 hours, were intraperitoneally administered with glucose at a dose of 2 g/kg, and changes in blood glucose level were measured at a time interval for a total of 3 hours. […] FIG. 14b is a graph showing the area under the curve related to changes in blood glucose level.
The present inventors sacrificed and extracted liver tissues from a mouse having completed the drug administration experiment as described above, and captured photographs thereof to examine changes in the size and color of the liver tissues, and measured the weight of the extracted liver tissues as well as ALT blood level, which is a measure of hepatotoxicity level.

[2] = In vivo pharmacokinetics profile after subcutaneous administration (GLP-1-Fc ELISA and GLP-2-Fc ELISA); parameters: species or system male SD (Sprague Dawley) rats; settings: for AUClast / Cmax / Half-life / Tmax: 1 mg/kg SC
Protocol: First, each protein was administered to 3 male SD (Sprague Dawley) rats per group at a dose of 1 mg/kg by subcutaneous (SC) route. Before injection and after 0.5, 1, 5, 10, 24, 48, 72, 120, and 168 hours after the injection, blood was collected and stored at room temperature for 30 minutes to aggregate. After centrifuging the aggregated blood at 3,000 rpm for 10 minutes, serum of each sample was collected and stored in a cryogenic freezer. Analyses were performed by an assay designed to specifically detect the GLP-1 site and Fc in the administered protein (GLP-1-Fc ELISA) and an assay designed to specifically detect the GLP-2 site and Fc in the administered protein (GLP-2-Fc ELISA). Specifically, a method of loading a biological sample on a plate coated with an antibody that binds to mouse-derived human immunoglobulin G4 (IgG4) to detect the target protein using a biotinylated anti-GLP-1 antibody (GLP-1-Fc ELISA), and a method of loading a biological sample on a plate coated with a monoclonal antibody that specifically reacts with GLP-2, to detect the target protein using a secondary antibody having HRP conjugated to mouse-derived human immunoglobulin G4 (IgG4) (GLP-2-Fc ELISA) were used. The obtained and prepared serum samples were loaded with appropriate dilutions to be analyzed at a position on a straight line of the standard curve.

[3] = system: B6 normal mice; test: Small intestine changes and nutrient absorption changes (GLP-2-2G, GLP-2-Fc homodimer, MG12-5); assay type: in vivo
Protocol: In order to observe changes in the small intestine and nutrient absorption capacity following substance administration, an experiment was conducted in B6 normal mice. PBS and GLP-2-2G were administered twice a day, and GLP-2-Fc homodimer and MG12-5 were administered once every three days for 2 weeks. For the GLP-2-Fc homodimer and MG12-5 groups, PBS was administered twice a day, as was in the other administration groups, during the period when no drug was administered. Body weight and dietary intake were monitored at 3-day intervals, and feces were collected before administration, on days 5-6 after administration, and on days 11-12 after administration, and calorimetry was performed using a bomb calorimeter, and also, feed ingested during this period was also subjected to calorimetry through the same analysis. The energy absorption rate was defined as a value obtained by subtracting the calorific value of feces from the caloric value of ingested feed. On day 14 following drug administration, the experimental animals were sacrificed and the small intestine (pylorus ileum) was weighed.

[4] = system: Balb/c-nude mice; test: PET-MRI tissue distribution of Zr89-labelled proteins; assay type: in vivo; settings: Zr89 label, SC
Source text: Next, the present inventors performed an experiment in Balb/c-nude mice in order to observe the distribution in each tissue organ following the administration of a substance. Zr^89 was used as a radiotracer for tracking the distribution after administration of each substance. Each substance to be administered was labeled with Zr^89 as a reaction condition and a chelator selected through a preliminary test. The labeled Zr^89-protein was purified using a PD-10 column, and Zr^89 labeling efficiency and purity were confirmed using Radio TLC and SEC-HPLC. The labeling efficiency of the Zr^89-protein of 90% or more and the purity of 80% or more were determined to be appropriate, and the labeled protein was administered subcutaneously at 0.2 mCi/0.2 cc. Each administration substance was administered to three animals and static images for 20 minutes were obtained using PET-MRI at 1 hour, 6 hours, 24 hours, 48 hours, and 168 hours after injection. Through image analysis, the distribution of drugs as a function of time in the liver, small intestine, and large intestine was expressed as SUV (Standardized Uptake Value) and comparatively analyzed.

[5] = system: B6 normal mice; test: MG12 vs. GLP-1 and GLP-2 combo: body weight and small intestine changes; assay type: in vivo; settings: 12 days SC
Protocol: In particular, in order to observe changes in body weight and the small intestine following the substance administration, an experiment was conducted in B6 normal mice. […] After starting drug administration twice a week during the test period, feed intake was measured and expressed as cumulative feed intake, and pre-autopsy body weight was measured to calculate the body weight vs. feed intake. After the autopsy, the weight of the small intestine, and mucosal depth and villus height of the duodenum and the jejunum were measured. More specifically, after the autopsy, the entire gastrointestinal tract of the mouse was separated, the mesentery and the pancreas were excised, and the area where the ileum and the cecum meet was cut to separate the small intestine and the large intestine.

[6] = 20 nmol/kg SC, 4 weeks with CD-HFD
[7] = excised liver at end of experiment

B1: MG12-5: Knob/hole Fc heterodimer: GLP-1/Exendin 4 hybrid (SEQ 5), unmodified linker, first fusion protein SEQ 28; GLP-2 (SEQ 17), second fusion protein SEQ 34 (protein)
chain 1: HGEGTFTSDVSSYLEGQAAKEFIAWLVKGGPSSGAPPPSGGGGSGGGGSGGGGSEKEKEEQEERTHTCPPCPSHTQPLGVFLFPPKPKDQLMISRTPEVTCVVVDVSQEDPEVQFNWYVDGVEVHNAKTKPREEQFNSTYRVVSVLTVLHQDWLNGKEYKCKVSNKGLPSSIEKTISKAKGQPREPQVYTLPPCQEEMTKNQVSLWCLVKGFYPSDIAVEWESNGQPENNYKTTPPVLDSDGSFFLYSRLTVDKSRWQEGNVFSCSVLHEALHNHYTQKSLSLSLGK
chain 2: HGDGSFSDEMNTILDNLAARDFINWLIQTKITDGGGGSGGGGSGGGGSEKEKEEQEERTHTCPPCPSHTQPLGVFLFPPKPKDQLMISRTPEVTCVVVDVSQEDPEVQFNWYVDGVEVHNAKTKPREEQFNSTYRVVSVLTVLHQDWLNGKEYKCKVSNKGLPSSIEKTISKAKGQPREPQVCTLPPSQEEMTKNQVSLSCAVKGFYPSDIAVEWESNGQPENNYKTTPPVLDSDGSFFLVSRLTVDKSRWQEGNVFSCSVLHEALHNHYTQKSLSLSLGK
For B1, the “body weight (relative change)” value [1, 6] was “greater relative body weight reduction effect”, the feed intake [1, 6] was “lower feed intake” and the “blood ALT level” value ([1]; after 16 weeks of CD-HFD diet) was “decrease in ALT level to a level similar to that of the normal diet group”. The liver color [1, 7] was “liver color similar to that of the normal diet group”, the liver weight [1, 7] was “reduced” and the “blood glucose level, intraperitoneal glucose tolerance test” value ([1]; glucose 2 g/kg i.p. after 12 hours food restriction, 3 hours) was “statistically significant decrease in blood glucose level”. The “area under the curve of the change in blood glucose level” value ([1]; intraperitoneal glucose tolerance test) was “decreased two times or more”, the “terminal half-life, rank among MG12-1, 3, 4 and 5” value ([2]; GLP-2-Fc ELISA) was “shortest half-life” and the “Cmax, rank among MG12-1, 3, 4 and 5” value ([2]; both ELISA methods) was “highest value”. It also gave an AUClast ([2]; rat, GLP-1-Fc ELISA (Table 5)) of 26.0596 ± 3.0285 µg·h/mL, a Cmax ([2]; rat, GLP-1-Fc ELISA (Table 5)) of 1036.2 ± 59.5 ng/mL and a Half-life ([2]; rat, GLP-1-Fc ELISA (Table 5)) of 18.4 ± 6.2 h. It also gave a Tmax ([2]; rat, GLP-1-Fc ELISA (Table 5)) of 10 h, an AUClast ([2]; rat, GLP-2-Fc ELISA (Table 6)) of 188.7416 ± 7.8705 µg·h/mL and a Cmax ([2]; rat, GLP-2-Fc ELISA (Table 6)) of 3201.3 ± 95.6 ng/mL. For the same molecule, the Half-life ([2]; rat, GLP-2-Fc ELISA (Table 6)) was 30.6 ± 2.1 h, the Tmax ([2]; rat, GLP-2-Fc ELISA (Table 6)) was 24.0 ± 0.0 h and the “AUClast, rank among MG12-1, 3, 4 and 5” value ([2]; rat, SC) was “highest”. The body weight ([3]; 2 weeks dosing) was “an increase significant compared to the negative control group; also recorded: statistically significant body weight increase compared to other drug administered groups”, the energy absorption rate ([3]; Week 1, after the second dose) was “statistically significant increase compared to the vehicle-administered group” and the energy absorption rate ([3]; Week 2, after the fourth dose) was “an increase even more significant than GLP-2-Fc homo”. The small intestine weight ([3]; day 14, 2 weeks dosing) was “most notable increase in the small intestine weight; also recorded: statistically significant increase compared to the other two drug administered group; also recorded: superior effect of increasing small intestine weight to GLP-2-2G and GLP-2-Fc homodimer”, the “distribution to the liver (SUV)” value [4] was “reduced or showed no difference compared to Fc” and the “distribution to the small intestine and large intestine (SUV)” value [4] was “significantly high compared to that of GLP-1-Fc homodimer and GLP-2-Fc homodimer”. The “body weight increase vs. feed intake” value ([5]; normalized to cumulative feed intake) was “statistically significant body weight increase compared to the co-administered group” and the small intestine weight ([5]; Ex-4 10 nmol/kg, others 33.3 nmol/kg) was “statistically significant increase in the small intestine compared to the co-administered group”.
